From patent US20180215825A1 (BEIGENE, published 2018) come the findings set out here.

Substitutions are numbered along the chain they refer to.

In general, EC50 (read off the curve) refers to the concentration needed to bring the measured effect to its halfway point.

The labels stand for the following.
T1: human FcγRIIAH131 expressed on HEK293 cells (human, UniProt P12318 34-317)
T1 construct: whole, on cells
T1 sequence (looked up): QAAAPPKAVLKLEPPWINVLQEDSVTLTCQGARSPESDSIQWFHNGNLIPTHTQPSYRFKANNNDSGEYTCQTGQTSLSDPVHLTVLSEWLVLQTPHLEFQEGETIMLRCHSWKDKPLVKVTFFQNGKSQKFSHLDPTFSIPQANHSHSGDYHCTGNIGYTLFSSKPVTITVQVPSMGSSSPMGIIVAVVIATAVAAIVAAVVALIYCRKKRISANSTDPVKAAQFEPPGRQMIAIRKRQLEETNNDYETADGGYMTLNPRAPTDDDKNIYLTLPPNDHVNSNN

T2: human FcγRIIB expressed on HEK293 cells (human, UniProt P31994 43-310)
T2 construct: whole, on cells
T2 sequence (looked up): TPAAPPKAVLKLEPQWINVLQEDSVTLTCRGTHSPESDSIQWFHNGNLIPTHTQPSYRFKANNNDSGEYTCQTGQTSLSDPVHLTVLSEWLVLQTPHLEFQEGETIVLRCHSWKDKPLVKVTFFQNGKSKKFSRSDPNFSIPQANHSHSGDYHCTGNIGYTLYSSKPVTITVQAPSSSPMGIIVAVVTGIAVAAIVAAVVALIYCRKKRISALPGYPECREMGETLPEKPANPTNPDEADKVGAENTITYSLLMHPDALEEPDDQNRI

T3: human FcγRIIAR131 expressed on HEK293 cells (human, UniProt P12318 34-317)
T3 construct: whole, on cells
T3 sequence (looked up): T1 sequence (looked up) with H134R

B1: hu333-4B2-IgG1mc (antibody)
heavy: EVQLVESGGGLVQPGGSLRLSCAVSGFSLTSYGVHWVRQAPGKGLEWVAVIWAGGSTNYADSVKGRFTISKDTSKNTVYLQMNSLRAEDTAVYYCAKPYGTSAMDYWGQGTLVTVSSASTKGPSVFPLAPSSKSTSGGTAALGCLVKDYFPEPVTVSWNSGALTSGVHTFPAVLQSSGLYSLSSVVTVPSSSLGTQTYICNVNHKPSNTKVDKKVEPKSCDKTHTCPPCPAPPAAAPSVFLFPPKPKDTLMISRTPEVTCVVVDVSHEDPEVKFNWYVDGVEVHNAKTKPREEQYNSTYRVVSVLTVLHQDWLNGKEYKCKVSNKALAAPIEKTISKAKGQPREPQVYTLPPSRDELTKNQVSLTCLVKGFYPSDIAVEWESNGQPENNYKTTPPVLDSDGSFFLYSKLTVDKSRWQQGNVFSCSVMHEALHNHYTQKSLSLSPGK
light: DIQMTQSPSSLSASVGDRVTITCKASQDVGIVVAWYQQKPGKAPKLLIYWASIRHTGVPSRFSGSGSGTEFTLTISSLQPDDFATYYCQQYSNYPLYTFGQGTKVEIKRTVAAPSVFIFPPSDEQLKSGTASVVCLLNNFYPREAKVQWKVDNALQSGNSQESVTEQDSKDSTYSLSSTLTLSKADYEKHKVYACEVTHQGLSSPVTKSFNRGEC
B2: hu333-4B2-IgG1mf (antibody)
heavy: B1 heavy with A236G
light: B1 light
B3: hu333-4A2-IgG1mc (antibody)
heavy: B1 heavy with A60V, T73N, S74A
light: B1 light
B4: hu333-4A2-IgG1wt (antibody)
heavy: not shown
VL: DIQMTQSPSSLSASVGDRVTITCKASQDVGIVVAWYQQKPGKAPKLLIYWASIRHTGVPSRFSGSGSGTEFTLTISSLQPDDFATYYCQQYSNYPLYTFGQGTKVEIK
notes: light chain constant region (kappa) not tied to an entry for this form

The target of one assay is T4, cynomolgus monkey PD-L1/His (cynomolgus monkey (Macaca fascicularis), UniProt G7PSE7 19-238).
T4 construct: extracellular domain; Said to be expressed and purified in a similar way to the human PD-L1/His (PD-L1-ECD/His); not shown: His tag
T4 sequence (G7PSE7 entry or part of it): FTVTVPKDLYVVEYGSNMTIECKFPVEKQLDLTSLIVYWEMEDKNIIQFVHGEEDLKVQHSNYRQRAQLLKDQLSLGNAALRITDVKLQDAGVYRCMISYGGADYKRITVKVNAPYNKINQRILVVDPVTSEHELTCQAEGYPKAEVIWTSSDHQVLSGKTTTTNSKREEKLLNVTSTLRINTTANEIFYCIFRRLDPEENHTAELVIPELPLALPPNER
Kind of assay: ELISA on coated cynomolgus monkey PD-L1/His, anti-human Fc-HRP [B]. The procedure:
The monkey PD-L1/His and murine PD-L1/His were expressed and purified in a similar way to the human PD-L1/His as described earlier. […] The synthesized full length mAb was named as Y1-IgG1mc. The ELISA assay was performed essentially in the same way as described in the previous section. Briefly, 200 ng of PD-L1 protein was coated on each well of Nunc MaxiSorp ELISA plate (Cat. No. 442404, Nunc, Thermo Fisher). After washing and blocking, indicated concentrations of anti-PD-L1 mAbs were added and incubated at room temperature for 1 hour. After washing, the bound anti-PD-L1 mAbs were detected using a HRP-conjugated goat anti-human Fc antibody (Cat. No. A0170, Sigma).
(ELISA stands for enzyme-linked immunosorbent assay.)
For the molecule B1, the “EC50 (read off the curve)” value was about 0.04 µg/mL.

Regarding B2, the concentration for a half-maximal effect (EC50 (read off the curve)) is about 0.04 µg/mL.

Consider B3, for which the “EC50 (read off the curve)” value was about 0.04 µg/mL.

Another assay deals with T5, human FcγRI expressed on HEK293 cells (human, UniProt P12314 16-374).
T5 construct: whole, on cells; Co-expressed with FcRγ subunit
T5 sequence (P12314 16-374): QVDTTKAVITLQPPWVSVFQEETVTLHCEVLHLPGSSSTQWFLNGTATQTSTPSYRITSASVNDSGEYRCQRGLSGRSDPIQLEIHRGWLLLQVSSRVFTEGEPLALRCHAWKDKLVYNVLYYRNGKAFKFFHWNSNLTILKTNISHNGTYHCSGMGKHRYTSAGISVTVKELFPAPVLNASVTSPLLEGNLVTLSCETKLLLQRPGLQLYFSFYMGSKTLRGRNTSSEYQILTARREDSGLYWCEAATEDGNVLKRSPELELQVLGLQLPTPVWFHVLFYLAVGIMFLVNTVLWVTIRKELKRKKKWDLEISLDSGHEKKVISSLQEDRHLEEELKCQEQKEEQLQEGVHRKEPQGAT
Kind of assay: FACS, monomeric mAb on FcγR-expressing HEK293 cells, goat anti-human IgG F(ab')2-Alexa Fluor 488 detection. The procedure: (§1) Bindings of humanized anti-PD-L1 in various IgG1 formats (wt, IgG1mc, IgG1mf, SEQ. NO. 27-29) to FcγRs were also determined by flow cytometry. In brief, a series of stable HEK293 transfectants expressing human FcγRs were established. These stable cell lines expressed FcγRI, FcγRIIAH131, FcγRIIAR131, FcγRIIB, FcγRIIIAF158 or FcγRIIIAV158, respectively. Multi-subunit FcγRs (i.e., FcγRI and FcγRIIIA) were co-expressed with FcRγ subunit.
Take B1: the binding result was “no binding”.

On to B2, for which the binding result was “no binding”.

B3: the binding result is recorded as “no binding”.

In a further assay the target is T6, human FcγRIIIAF158 expressed on HEK293 cells (human, UniProt P08637 17-254).
T6 construct: whole, on cells; Co-expressed with FcRγ subunit
T6 sequence (P08637 17-254): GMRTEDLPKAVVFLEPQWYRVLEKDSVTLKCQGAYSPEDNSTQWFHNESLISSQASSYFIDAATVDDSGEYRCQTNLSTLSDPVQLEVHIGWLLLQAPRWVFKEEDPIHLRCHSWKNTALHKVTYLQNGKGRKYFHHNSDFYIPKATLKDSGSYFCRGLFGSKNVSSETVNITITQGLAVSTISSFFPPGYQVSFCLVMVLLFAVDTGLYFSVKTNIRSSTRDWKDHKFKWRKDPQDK
The assay is described as above. The protocol:
as §1
Take B1: the binding result is listed as “no binding”.

As for B2, the binding result is “no binding”.

For the molecule B3, the binding result is “no binding”.

Another assay deals with T1, human FcγRIIAH131 expressed on HEK293 …. Described as above. The procedure: as §1
B1: the binding result was “no binding”.

As to B2, the binding result is listed as “no binding”.

As for B3, the binding result is listed as “no binding”.

Another assay addresses T2, human FcγRIIB expressed on HEK293 cells. Described as above. The protocol:
as §1
On to B1, for which the binding result is reported as “no binding”.

Turning to B2, the binding result is on record as “no binding”.

Turning to B3, the binding result is listed as “no binding”.

Another assay deals with T3, human FcγRIIAR131 expressed on HEK293 …. The assay is described as above. The protocol: as §1
With B1, the binding result is given as “no binding”.

Turning to B2, the binding result is listed as “no binding”.

In the case of B3, the binding result is “no binding”.

The target of another assay is T7, human FcγRIIIAV158 expressed on cells (human, UniProt P08637 17-254).
T7 construct: whole, on cells; Co-expressed with FcRγ subunit; on HEK293 cells in the FACS assays, on NK92MI/CD16V cells in the ADCC assay; also called CD16 (V158 allele)
T7 sequence (P08637 17-254 F176V limits assumed): as the sequence (P08637 17-254) above, with F160V counted along it
Described as above. The protocol:
as §1
On to B1, for which the binding result is on record as “no binding”.

For the molecule B2, the binding result is recorded as “no binding”.

B3: the binding result is recorded as “no binding”.

A further assay has as its target T5, human FcγRI expressed on HEK293 cells. Kind of assay: FACS, monomeric mAb on FcγR-expressing HEK293 cells. The protocol: as §1
Regarding B1, the MFI amounted to 4.78 MFI.

As to B2, the MFI came out at 4.56 MFI.

Consider B3, for which the MFI amounted to 4.29 MFI.

Molecule B4 had an MFI of 1170 MFI.

Another assay addresses T6, human FcγRIIIAF158 expressed on HEK293 …. Described as above. The protocol:
as §1
Take B1: the MFI came to 5.42 MFI.

Molecule B2 displayed an MFI of 5.09 MFI.

For B3, the MFI amounted to 5.2 MFI.

B4 registered an MFI of 29.4 MFI.

Another assay concerns the target T1, human FcγRIIAH131 expressed on HEK293 …. The description is as above. The procedure: as §1
As for B1, the MFI turned out to be 6.16 MFI.

B2 came in with an MFI of 6.12 MFI.

B3 returned an MFI of 5.78 MFI.

Regarding B4, the MFI stood at 40.5 MFI.

The target in the next assay is T2, human FcγRIIB expressed on HEK293 cells. The assay is described as above. The protocol:
as §1
B1: the MFI came to 4.49 MFI.

Take B2: the MFI came to 3.73 MFI.

B3: the MFI was 3.71 MFI.

B4 displayed an MFI of 19 MFI.

Another assay concerns the target T3, human FcγRIIAR131 expressed on HEK293 …. The description is as above. The protocol: as §1
B1 gave an MFI of 3.64 MFI.

Molecule B2 gave an MFI of 3.99 MFI.

With B3, the MFI came to 3.8 MFI.

B4 showed an MFI of 15.1 MFI.

The next assay has as its target T7, human FcγRIIIAV158 expressed on cells. The assay is described as above. The protocol:
as §1
In the case of B1, the MFI was 4.14 MFI.

As to B2, the MFI came out at 3.91 MFI.

Consider B3, for which the MFI was 3.87 MFI.

The molecule B4 showed an MFI of 91.7 MFI.
